Results published in paper PMC12262184, “Structural insights into transcriptional regulation by the helicase RECQL5” (Nature Structural & Molecular Biology, 2025).

Target: RPB1 subunit of human RNA polymerase II (human (endogenous in HeLa), UniProt P24928 1-1970)
Assay: cryo-EM structure; EC_(REC-Apo): Pol II on anti-RPB1-protein G resin incubated with tenfold excess of nucleic acid scaffold, then tenfold excess of RECQL5_(1–620)-D157A, no nucleotide; eluted with RPB1 triheptapeptide repeat; crosslinked with 0.02% glutaraldehyde; graphene oxide grids
Conditions: both partners purified

binding result: binds
B1: RECQL5_(1–620)-D157A (domain or fragment)
chain: MSSHHTTFPFDPERRVRSTLKKVFGFDSFKTPLQESATMAVVKGNKDVFVCMPTGAGKSLCYQLPALLAKGITIVVSPLIALIQDQVDHLLTLKVRVSSLNSKLSAQERKELLADLEREKPQTKILYITPEMAASSSFQPTLNSLVSRHLLSYLVVAEAHCVSQWGHDFRPDYLRLGALRSRLGHAPCVALTATATPQVQEDVFAALHLKKPVAIFKTPCFRANLFYDVQFKELISDPYGNLKDFCLKALGQEADKGLSGCGIVYCRTREACEQLAIELSCRGVNAKAYHAGLKASERTLVQNDWMEEKVPVIVATISFGMGVDKANVRFVAHWNIAKSMAGYYQESGRAGRDGKPSWCRLYYSRNDRDQVSFLIRKEVAKLQEKRGNKASDKATIMAFDALVTFCEELGCRHAAIAKYFGDALPACAKGCDHCQNPTAVRRRLEALERSSSWSKTCIGPSQGNGFDPELYEGGRKGYGDFSRYDEGSGGSGDEGRDEAHKREWNLFYQKQMQLRKGKDPKIEEFVPPDENCPLKEASSRRIPRLTVKAREHCLRLLEEALSSNRQSTRTADEADLRAKAVELEHETFRNAKVANLYKASVLKKVADIHRASKDGQPYDM
notes: RECQL5 helicase, human, residues 1-620 (helicase D1 and D2 subdomains, RQC domain, IRI module with αN helix and KIX domain); lacks the unstructured region and the SRI domain; The purification is described for GST-tagged RECQL5_(1–620) in general; Used without nucleotide in EC_(REC-Apo); also called truncated RECQL5 construct; source: E. coli BL21-CodonPlus (DE3)-RIL, purified (glutathione …)
